Test results as given in patent US20140087995A1 (published 2014).
Numbered stars: 1 amine (or outer) side, 2 acyl side, 3 side chain; on linkers, the order of the positions; unused ones are H or OH. Bridge positions count the residues as written; N and C are the ends. Side chains are listed from the residue outwards. Ends that are not written are not given here. * marks the point of attachment. C20 diacid = O=C(O)CCCCCCCCCCCCCCCCCCC(=O)*; γGlu = O=C(O)[C@H](CCC(=O)[*:2])N[*:1]

T1: human amylin 3(a) receptor (human calcitonin receptor plus RAMP-3) (human, UniProt P30988 25-474; O60896 24-148, limits assumed)
T1 construct: whole, on cells; Whole cells in the luciferase assay (Assay II a); also called hAmylin-R; human amylin receptor
T1 sequence (looked up) 1: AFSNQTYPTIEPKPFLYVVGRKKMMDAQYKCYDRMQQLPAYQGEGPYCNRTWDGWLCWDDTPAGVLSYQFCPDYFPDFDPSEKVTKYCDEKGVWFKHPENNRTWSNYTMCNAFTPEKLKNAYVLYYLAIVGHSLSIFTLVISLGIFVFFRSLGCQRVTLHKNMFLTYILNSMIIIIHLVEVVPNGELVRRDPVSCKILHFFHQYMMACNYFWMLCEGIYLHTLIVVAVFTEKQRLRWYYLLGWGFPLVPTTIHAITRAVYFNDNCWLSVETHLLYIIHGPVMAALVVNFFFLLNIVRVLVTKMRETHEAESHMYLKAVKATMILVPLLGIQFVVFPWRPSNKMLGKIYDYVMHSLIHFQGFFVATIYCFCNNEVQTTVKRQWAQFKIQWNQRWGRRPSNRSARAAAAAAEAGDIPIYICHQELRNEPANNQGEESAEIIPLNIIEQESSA
T1 sequence (looked up) 2: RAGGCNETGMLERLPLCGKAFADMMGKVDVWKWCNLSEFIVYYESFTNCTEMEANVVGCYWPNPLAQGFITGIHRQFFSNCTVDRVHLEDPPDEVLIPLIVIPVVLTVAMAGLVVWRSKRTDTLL

T2: human calcitonin receptor (human, UniProt P30988 25-474)
T2 sequence (looked up): T1 sequence (looked up) 1

B1: N^ε1-[(4S)-4-carboxy-4-[[(4S)-4-carboxy-4-(19-carboxynonadecanoylamino)butanoyl]amino]butanoyl]-[Glu14,Arg17,Pro21,Pro27,Arg34,Glu35]-h-amylin (peptide)
peptide: K([γGlu-γGlu-C20 diacid])CNTATCATQRLAEFLRHSSPNFGAIPSSTNVGRETY-NH2
modifications: disulfide 2-7; N-terminus assumed
SMILES: CC[C@H](C)[C@H](NC(=O)[C@H](C)NC(=O)CNC(=O)[C@H](Cc1ccccc1)NC(=O)[C@H](CC(N)=O)NC(=O)[C@@H]1CCCN1C(=O)[C@H](CO)NC(=O)[C@H](CO)NC(=O)[C@H](Cc1c[nH]cn1)NC(=O)[C@H](CCCNC(=N)N)NC(=O)[C@H](CC(C)C)NC(=O)[C@H](Cc1ccccc1)NC(=O)[C@H](CCC(=O)O)NC(=O)[C@H](C)NC(=O)[C@H](CC(C)C)NC(=O)[C@H](CCCNC(=N)N)NC(=O)[C@H](CCC(N)=O)NC(=O)[C@@H](NC(=O)[C@H](C)NC(=O)[C@@H]1CSSC[C@H](NC(=O)[C@@H](N)CCCCNC(=O)CC[C@H](NC(=O)CC[C@H](NC(=O)CCCCCCCCCCCCCCCCCCC(=O)O)C(=O)O)C(=O)O)C(=O)N[C@@H](CC(N)=O)C(=O)N[C@@H]([C@@H](C)O)C(=O)N[C@@H](C)C(=O)N[C@@H]([C@@H](C)O)C(=O)N1)[C@@H](C)O)C(=O)N1CCC[C@H]1C(=O)N[C@@H](CO)C(=O)N[C@@H](CO)C(=O)N[C@H](C(=O)N[C@@H](CC(N)=O)C(=O)N[C@H](C(=O)NCC(=O)N[C@@H](CCCNC(=N)N)C(=O)N[C@@H](CCC(=O)O)C(=O)N[C@H](C(=O)N[C@@H](Cc1ccc(O)cc1)C(N)=O)[C@@H](C)O)C(C)C)[C@@H](C)O
B2: N^ε1-[(4S)-4-carboxy-4-[[(4S)-4-carboxy-4-(19-carboxynonadecanoylamino)butanoyl]amino]butanoyl]-[Glu14,Arg17,Pro21,Pro27,Arg34]-h-amylin (peptide)
peptide: K([γGlu-γGlu-C20 diacid])CNTATCATQRLAEFLRHSSPNFGAIPSSTNVGRNTY-NH2
modifications: disulfide 2-7; N-terminus assumed
SMILES: CC[C@H](C)[C@H](NC(=O)[C@H](C)NC(=O)CNC(=O)[C@H](Cc1ccccc1)NC(=O)[C@H](CC(N)=O)NC(=O)[C@@H]1CCCN1C(=O)[C@H](CO)NC(=O)[C@H](CO)NC(=O)[C@H](Cc1c[nH]cn1)NC(=O)[C@H](CCCNC(=N)N)NC(=O)[C@H](CC(C)C)NC(=O)[C@H](Cc1ccccc1)NC(=O)[C@H](CCC(=O)O)NC(=O)[C@H](C)NC(=O)[C@H](CC(C)C)NC(=O)[C@H](CCCNC(=N)N)NC(=O)[C@H](CCC(N)=O)NC(=O)[C@@H](NC(=O)[C@H](C)NC(=O)[C@@H]1CSSC[C@H](NC(=O)[C@@H](N)CCCCNC(=O)CC[C@H](NC(=O)CC[C@H](NC(=O)CCCCCCCCCCCCCCCCCCC(=O)O)C(=O)O)C(=O)O)C(=O)N[C@@H](CC(N)=O)C(=O)N[C@@H]([C@@H](C)O)C(=O)N[C@@H](C)C(=O)N[C@@H]([C@@H](C)O)C(=O)N1)[C@@H](C)O)C(=O)N1CCC[C@H]1C(=O)N[C@@H](CO)C(=O)N[C@@H](CO)C(=O)N[C@H](C(=O)N[C@@H](CC(N)=O)C(=O)N[C@H](C(=O)NCC(=O)N[C@@H](CCCNC(=N)N)C(=O)N[C@@H](CC(N)=O)C(=O)N[C@H](C(=O)N[C@@H](Cc1ccc(O)cc1)C(N)=O)[C@@H](C)O)C(C)C)[C@@H](C)O
notes: also called compound 88

Tests used:
[1] = molecular target: T1, human amylin 3(a) receptor (human …); experiment: SPA competition binding, displacement of 125I-rat amylin from membranes of Amylin 3(a)/CRE-luc BHK cells (Assay V)
Outline: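 SPA beads + BHK amylin 3(a)/CRE-luc membranes, 35 ng/μL final; buffer 50 mM Hepes pH 7.4, 1 mM CaCl2, 5 mM MgCl₂, 0.1% OA, 0.02% Tween20. 120 min, 25° C, shaken; scintillation count. IC₅₀ by one-site binding competition fit, taken as receptor affinity.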

[2] = molecular target: T1, human amylin 3(a) receptor (human …); experiment: cell-based or functional assay
[3] = molecular target: T2, human calcitonin receptor; experiment: cell-based or functional assay

Binder | IC50 [1] [nM] | hAmylin-R funct. EC50 [2] [nM] | hCTR funct. EC50 [3] [nM] | Ratio hCT/hAmylin funct. [2]
B1 | 0.957 | 0.703 | 7.43 | –
B2 | 0.75 | 0.773 | 6.55 | 8.5
